{"source": "paper PMC3458955", "about": "(2012)", "target": "CXCL12α (Homo sapiens, UniProt P48061)", "experiment": "total internal reflection ellipsometry (TIRE) on Ishikawa cell membranes; given as Ka", "data": [{"binder": "CXCR4 (protein) MEGISIYTSDNYTEEMGSGDYDSMKEPCFREENANFNKIFLPTIYSIIFLTGIVGNGLVILVMGYQKKLRSMTDKYRLHLSVADLLFVITLPFWAVDAVANWYFGNFLCKAVHVIYTVNLYSSVLILAFISLDRYLAIVHATNSQRPRKLLAEKVVYVGVWIPALLLTIPDFIFANVSEADDRYICDRFYPNDLWVVVFQFQHIMVGLILPGIVILSCYCIIISKLSHSKGHQKRKALKTTVILILAFFACWLPYYIGISIDSFILLEIIKQGCEFENTVHKWISITEALAFFHCCLNPILYAFLGAKFKTSAQHALTSVSRGSSLKILSKGKRGGHSSVSTESESSSFHSS", "values": [{"measurement": "Kd", "value": 0.714, "unit": "nM"}]}]}
